Results published in patent US7862994.

Biological target: human CD4 on the surface of cells (HeLa-CD4+, C8166, PM1, primary human CD4+ T lymphocytes) (human) (UniProt P01730)
Experiment: cell-based or functional assay

Substance: HIV-1LAI gp120/gp41 expressed on HeLa cells (HeLa-envLAI+) (from UniProt P03377 33-861; P03377 33-861)
- % RET, fusion of HeLa-envLAI+ with C8166 cells, no inhibitor: 13 % RET
- % RET, fusion of HeLa-envLAI+ with HeLa-CD4+ cells, no inhibitor: 7.3 % RET

Substance: murine MAb OKT4a (anti-CD4 monoclonal antibody, Ortho Diagnostic Systems)
- % Inhibition of RET, fusion of HeLa-envJR-FL with LW5 primary CD4+ T cells, OKT4A at 3 ug/ml: 100%
- % Inhibition of RET, fusion of HeLa-envLAI with LW5 primary CD4+ T cells, OKT4A at 3 ug/ml: 100%
- % RET, fusion of HeLa-envJR-FL+ with PM1 cells in the presence of OKT4A (0.3 µg/ml): 0.7 % RET
- % RET, fusion of HeLa-envLAI+ with C8166 cells in the presence of OKT4A (0.3 µg/ml): 0.6 % RET
- % RET, fusion of HeLa-envLAI+ with HeLa-CD4+ cells in the presence of OKT4A (0.3 µg/ml): 0.4 % RET
- % inhibition of RET at 0.2 µg/ml, HeLa-env+ + HeLa-CD4+ cells, cuvette method: 65%

Substance: OKT4 (mouse monoclonal antibody that binds CD4, Ortho Diagnostic Systems)
- % inhibition of RET at 0.2 µg/ml, HeLa-env+ + HeLa-CD4+ cells, cuvette method: 0%
- % inhibition of RET at 2.0 µg/ml, HeLa-env+ + HeLa-CD4+ cells, cuvette method: 0%

Substance: HIV-1JR-FL gp120/gp41 expressed on HeLa cells (HeLa-envJR-FL+)
- % RET, fusion of HeLa-envJR-FL+ with PM1 cells, no inhibitor: 7.5 % RET
